Laboratory results as given in the supplement of paper PMC9170038.

System: MS2 coat protein
Experiment: apparent KD of MS2 coat protein; designed switch direction (-1 OFF switch, 1 ON switch): -1; higher = weaker reporter binding
In short: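 Three titration conditions were used: no input, 200 uM small-molecule ligand, and an oligonucleotide input. In each, SNAP-549-labelled MS2 coat protein was raised from 0.7 or 1.5 nM, doubling, to 3 µM over designed RNA switches transcribed on Illumina chips by stalled E. coli RNA polymerase. Curve fits of normalised cluster fluorescence gave values whose per-design median over clusters is the apparent KD.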

[1] = input ligand: microRNA oligo, concentration not stated
[2] = Eterna round: R95, input ligand: microRNA oligo, concentration not stated

| Sequence | apparent KD of MS2 coat protein (input ligand: FMN 200 uM) | apparent KD of MS2 coat protein (input ligand: none) | apparent KD of MS2 coat protein [1] | apparent KD of MS2 coat protein (Eterna round: R95, input ligand: FMN 200 uM) | apparent KD of MS2 coat protein [2] | apparent KD of MS2 coat protein (Eterna round: R95, input ligand: none) |
| --- | --- | --- | --- | --- | --- | --- |
| GCUGGUCGAGGAUAUACAUGAGGAUCACCCAUGUGGUCACGUGACUUCGGUCACGAAUGUAGAAGGCGACCAGC [E3/3-A4] (Eterna round: R97, puzzle: Exclusion 3) | 65.8 nM | 610 nM | – | – | – | – |
| UACAUGAGGAUCACCCAUGUUUUGUCGUGUAUGGUAUUUAUCUAGGAUAUCAAUUUGUUUAUGUAUGAGAAGGAGAAUAUUAAU [JMF's solution 72] (Eterna round: R96, puzzle: Exclusion NG 3) | 32.9 nM | 35.6 nM | 28.4 nM | – | – | – |
| AUUCUCUCGGUGAGGAUAUGAGUAACGACGGCAGAUUAGAAGGUACAUGAGGAUCACCCAUGUGUGUUUGGGAU [Eternabot (L1) Solution 75] (Eterna round: R97, puzzle: Brourd's mod of Exclusion 4) | 41.7 nM | 47.5 nM | – | – | – | – |
| GAAUGAGAGCAGGAUAUCUUAUAAAUAUAUGAAAGAGAAGGGCUCACAUGAGGAUCACCCAUGUGGUCCUAGAU [jl-ex6-4.75 jandersonlee mod] (Eterna round: R97, puzzle: Exclusion 6) | 443 nM | 42.9 nM | – | – | – | – |
| GAUAUGGUGGAGGAUAUCAUUUUGGAACCAAAGUGAGAAGGCUAAACAUGAGGAUCACCCAUGUGAAGCAAGGG [Eternabot (Original) Solution 41] (Eterna round: R97, puzzle: Exclusion 6) | 23.3 nM | 20.4 nM | – | – | – | – |
| UAUGGUUAAGUCAGGAUAUACGUGCAGUUUUCUGGGUAGAAGGGACAUGAGGAUCACCCAUGUAUGGUAGUGUU [Ex4 #49] (Eterna round: R97, puzzle: Brourd's mod of Exclusion 4) | 188 nM | 149 nM | – | – | – | – |
| UCCUCACAUGAGGAUCACCCAUGUCAGGAUAUACAAGAAAAUAACCGGAAAGACCGGAGUAGAAGGGACAUAAG [Beleonrala] (puzzle: Exclusion 1) | – | – | – | 31.6 nM | 16.1 nM | 16.1 nM |
| AAAUACCGGUGAGGAUAUUUUUAAUAGAGCUUUAUGAUAUACAUGAGGAUCACCCAUGUUACGUUAAAGAAGGCAUCGGAUAAA [Mat - Exclusion NG 2 - Mod of JL - D98] (Eterna round: R96, puzzle: Exclusion NG 2) | – | – | 13.9 nM | – | – | – |
| UUCUUACAUGAGGAUCACCCAUGUCAGGAUAUCUCCUCACUGCGCUUGCGCAGUGAAUAGAGAAGGGACAGGCU [JL ViennaUCT Aner mod 2] (puzzle: Exclusion 1) | – | – | – | – | 37.3 nM | – |
| GGGCCCGGUGUGAGGAUAUCGGGCUCGAAAGGGCUCGAGAAGGCACAUGAGGAUCACCCAUGUAAGCCGGGCCC [-42.6, -40.5 kcal, A 23%, 4-0] (Eterna round: R97, puzzle: Brourd's mod of Exclusion 4) | 15.2 nM | 18.6 nM | – | – | – | – |
| UUUUUGUGAGGAUAUGCGUAGUAGAACAAUAGUACUACUACGUAGAAGGCACAUGAGGAUCACCCAUGUUCCUC [Fiskers Ex 4 Super stable 44 mod 15] (puzzle: Exclusion 4) | – | – | – | – | 36.4 nM | – |
| GGUCGCUUUGUCAGGAUAUCAGGUUAGAUCUGAUUUGAGAAGGGACAUGAGGAUCACCCAUGUGGCGACCUAAA [Eternabot (L1) Solution 42] (Eterna round: R97, puzzle: Brourd's mod of Exclusion 4) | 26.4 nM | 31.7 nM | – | – | – | – |
| AGCUAGAUAGGAUAUGCCCGGGAUAACAUGAGGAUCACCCAUGUGGCCGAAUCAUGUCCAGCAGAAGGGUUUGGGA [Mod of ViennaUCT 10 - Jieux - Exclusion 5] (Eterna round: R97, puzzle: Exclusion 5) | 18.2 nM | 17 nM | – | – | – | – |
| ACAUGACAGCUAGGAUAUAUAUGACAUGAGGAUCACCCAUGUUGUCCCAUGUUGACGAAAACCGAAUAGAAGGAGCCACCCAUG [Ex NG2 #2] (Eterna round: R96, puzzle: Exclusion NG 2) | 86.1 nM | 71.4 nM | 53.6 nM | – | – | – |
| GUGCUGGUAGGAUAUACAUGAGGAUCACCCAUGUGGCGUGACUCCUAUGGCAGCGCCGGUAGAAGGAUUAGAAG [Eternabot (L1) Solution 60] (Eterna round: R97, puzzle: Exclusion 3) | 188 nM | 261 nM | – | – | – | – |
| CGAUGCACGAAUCCACAUGAGGAUCACCCAUGUCGUGUUAGCGAGGAUAUCGGAGACACAUAGUAUGAGAAGGCGCGAACCUGA [Ex NG3 #22] (Eterna round: R96, puzzle: Exclusion NG 3) | 13.1 nM | 13.1 nM | 11.9 nM | – | – | – |
| GAACUGAGGCAAAGCUUUAGUCGUACAUGAGGAUCACCCAUGUAGGAUAUGGUAGGCAAAGCUUACCAGAAGGACAGAGUGAUC [Mat - Exclusion NG 3 - Mod of JL - D60] (Eterna round: R96, puzzle: Exclusion NG 3) | 498 nM | 257 nM | 260 nM | – | – | – |
| CCUCUACAUGAGGAUCACCCAUGUCAGGAUAUCGUGUGUUUUUUUUCGGCCGCGCGUGCGAGAAGGGACGUCUU (Eterna round: R96, puzzle: Exclusion 1) | 35.2 nM | 36.2 nM | 26 nM | – | – | – |
| AACCUGAGGCUUUGCUUUAGGUGUACAUGAGGAUCACCCAUGUAGGAUAUGGUAGGCUUUGCUUACCAGAAGGACAUUGGCGUA [Mat - Exclusion NG 3 - Mod of JL - D39] (Eterna round: R96, puzzle: Exclusion NG 3) | 144 nM | 77.2 nM | 66.4 nM | – | – | – |
| UAAGUUUAGGUAGGAUAUACUUUCAAUUUCUCUUUCCUUACAUGAGGAUCACCCAUGUUUACAUUGUAGAAGGACCACUAUGUU [JR_ExcNG2_Sub054] (Eterna round: R96, puzzle: Exclusion NG 2) | – | – | 20.5 nM | – | – | – |
| AAGAAACAUGAGGAUCACCCAUGUGAGGAUAUGACCCGCCCGGCGUAAGCAAAAUAAAUCAGAAGGCACAAAGG [salish99_ex1_r4_007] (Eterna round: R97, puzzle: Exclusion 1) | 35.5 nM | 37.3 nM | – | – | – | – |
| GGCGCACAUGAGGAUCACCCAUGUGAGGAUAUUAGGCGAUCGUCGAUAGACGAUAGCCUGAGAAGGCACAUGCC [Mat - Exclusion 1 - Eli Mod - D18] (Eterna round: R97, puzzle: Exclusion 1) | 188 nM | 29.3 nM | – | – | – | – |
| ACAUGAGGAUCACCCAUGUGAAAAGAAUGGCUGACACAGAGAUAGGAUAUAUGUGCAUAUCAAACAUAGAAGGGUCAUAACUGG [Deportation 84 - Jieux - Exclusion NG 3] (Eterna round: R96, puzzle: Exclusion NG 3) | 28.4 nM | 30.5 nM | 29.4 nM | – | – | – |
| UUAAUUACGGUGCUUUAACCUCACAUGAGGAUCACCCAUGUGCAGGAUAUCAGCUCGAUUAGAGCUGAGAAGGGCACUGCACCG [ExNG3/11-A1] (Eterna round: R96, puzzle: Exclusion NG 3) | 15.1 nM | 12.5 nM | 9.95 nM | – | – | – |
| CAGUACUGAGGAUAUACAUGAGGAUCACCCAUGUAUCCAAGCUAGGAAACUAGCAAAUGUAGAAGGCAGUACUG [Ex3: 821] (Eterna round: R96, puzzle: Exclusion 3) | – | – | 30.9 nM | – | – | – |
